Molecular target: T1, human IL13Rα2 on cells (human, UniProt Q14627 27-380)
T1 construct: whole, on cells; also called hIL13Rα2
T1 sequence (looked up): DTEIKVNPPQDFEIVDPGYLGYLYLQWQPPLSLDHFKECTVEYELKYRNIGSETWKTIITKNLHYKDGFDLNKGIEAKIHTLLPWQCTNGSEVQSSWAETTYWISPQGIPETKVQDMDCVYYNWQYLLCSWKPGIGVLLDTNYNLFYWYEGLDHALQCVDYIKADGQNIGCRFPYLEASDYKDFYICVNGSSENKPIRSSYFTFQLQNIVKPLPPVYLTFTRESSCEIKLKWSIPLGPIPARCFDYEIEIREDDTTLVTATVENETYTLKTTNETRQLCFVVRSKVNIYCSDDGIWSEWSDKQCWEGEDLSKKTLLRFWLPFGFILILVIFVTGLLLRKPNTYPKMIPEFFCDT
Assay: flow cytometry control; cell line not stated

Substance: Isotype Control (flow cytometry control) (antibody)
- Flow Cytometry MFI: 21.4 MFI

Substance: 2o Ab (secondary antibody alone, flow cytometry control)
- Flow Cytometry MFI: 90.4 MFI

— patent publication US20210315933A1 (TCR2 THERAPEUTICS, published 2021)
